Source: paper PMC12748774 (Nature Communications, 2025)

Legend:
[1] = target: ZIKV WT sE (recombinant soluble ectodomain of Zika virus envelope E protein, wild type) (Zika virus, Brazilian strain SPH2015 …, UniProt A0A0U3FSM8); experiment: BLI; details: both partners purified
[2] = target: T1, ZIKV CC_FLE sE (G5C/G102C), disulfide-linked dimer (Zika virus (Brazilian Zika SPH2015 …)); experiment: cryo-EM structure; details: both partners purified
T1 construct: source: Drosophila Schneider S2 cells, purified (His-tag column, SEC)

Binder	binding result [1]	stoichiometry N [2]
OZ-D4_GL (germline-reverted OZ-D4, IgG1) (antibody, V domains shown) VH: QVQLQESGPGLVKPSETLSLTCTVSGGSISSYYWSWIRQPPGKGLEWIGYIYYSGSTNYNPSLKSRVTISVDTSKNQFSLKLSSVTAADTAVYYCARYSSGWSFSFDIWGQGTRVTVSS VL: QSALTQPASVSGSPGQSITISCTGTSSDVGSYNLVSWYQQHPGKAPKLMIYEGSKRPSGVSNRFSGSKSGNTASLTISGLQAEDEADYYCCSYAGSSTLVFGGGTKLTVL	no binding (tested: 250 nM)	
SMZAb2 Fab (Fab, V domains shown, also called Fabs; source: 293F cells, co-transfected, purified (cOmplete His-Tag Purification Resin)) VH: EVQLVQSGAEVKKPGSSVKVSCKAPGGTFSSYAMSWVRQAPGQGPEWVGGIVPVYGTSRYAQKFQGRGTITADESTSTVYLELSSLRSEDTALYYCARVRYYGSGTYYGGDAFDFWGQGTMVTVSS VL: QTVVTQEPSFSVSPGGTVTLTCGLTSDSVSIHLYPSWYQQTPGQAPRALIYNTNTRSSGVPDRFSGSILGNKAALTITGAQADDESVYFCVVYMGSGIWVFGGGTKLTVL		2
